Experiment: In vitro release (cumulative cleavage) from PEG-Glu-Lys conjugates in PBS (fluorescamine assay)
Assay type: physicochemical
Procedure: PEG-Glu(NH2)-(α)Lys(Z)OMe conjugate (15 mg) was dissolved in PBS (15 ml) and incubated at 37° C. Aliquots (50 μL) were taken at regular time intervals and the sample aliquots were dried using a CentriVap (Labconco Corporation, Kansas City, Mo.). The cumulative cleavage (%) of Lys(Z)OMe from PEG-Glu(NH2)-(α)Lys(Z)OMe conjugate was measured using fluorescamine assay^24.
PEG-Glu(NH2)-(ε)Lys(Z)OMe conjugates (15 mg) was dissolved in PBS (15 ml) and incubated at […] Aliquots (50 μL) were taken at regular time intervals and the sample aliquots were dried using a CentriVap (Labconco Corporation, Kansas City, Mo.). The cumulative cleavage (%) of Z-LysOMe from PEG-Glu(NH2)-(ε)Lys(Z)OMe conjugate was measured using fluorescamine assay^24.

Substance	release (cumulative cleavage) of Lys(Z)OMe from conjugate (37° C., at the time under E13)	time of Lys(Z)OMe release from conjugate (37° C., extent under E12)	Z-LysOMe released from conjugate (7° C., at the time under E15)	time of Z-LysOMe release from conjugate (7° C., extent under E14)
PEG-Glu(NH2)-(α)Lys(Z)OMe [PEG-Glu(NH2)-(α)Lys(Z)OMe conjugate]	~99%	490 h	–	–
PEG-Glu(NH2)-(ε)Lys(Z)OMe [PEG-Glu(NH2)-(ε)Lys(Z)OMe conjugate]	–	–	99%	~29 h
